1 molecule from US20090208453A1 (NURON BIOTECH, published 2009) can be followed below.

This assay concerns the target T1, recombinant human interferon-alpha/beta R2 receptor Fc chimera (R&D Systems, Product 4015-AB) (human, UniProt P48551 27-243).
T1 construct: Bought reagent, coated onto ELISA plates; also called rhIFN-R2 Fc; Fc part of the bought chimera not given
T1 sequence (looked up): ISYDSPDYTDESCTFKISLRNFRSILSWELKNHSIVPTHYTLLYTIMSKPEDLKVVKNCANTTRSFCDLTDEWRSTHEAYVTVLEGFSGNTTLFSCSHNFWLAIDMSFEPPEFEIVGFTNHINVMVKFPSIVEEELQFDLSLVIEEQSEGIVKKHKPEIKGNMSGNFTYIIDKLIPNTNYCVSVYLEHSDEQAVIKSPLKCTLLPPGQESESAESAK
Kind of assay: Receptor binding (competition): displacement of 125I-IFN-alpha from plate-coated rhIFN-R2 Fc; untreated and RP-HPLC-purified samples. The procedure:
Receptor binding competition assays were performed using purified rhIFN-beta1b from Bar 25 protein and BETASERON, and unprocessed Bar 25 protein and BETASERON. The assay was performed using the recombinant human interferon-alpha/beta R2 receptor Fc (rhIFN-R2 Fc) chimera (R&D Systems, Product 4015-AB). This receptor binds both interferon-alpha and interferon-beta. ¹²⁵I-human interferon-alpha (¹²⁵I-IFN-alpha) was used as the competing reagent to avoid potential effects of radiolabeling on the rhIFN-beta1b products. rhIFN-R2 Fc was coated onto ELISA plates and ¹²⁵I-IFN-alpha was added at a fixed concentration to each well. […] Unlabeled IFN-alpha was used as a control. The amount of ¹²⁵I-IFN-alpha remaining bound to rhIFN-R2 Fc after the competition was measured and plotted as a function of the rhIFN-beta1b concentration. The resulting curves for each product and purified rhIFN-beta1b sample were compared.

B1: Bar 25 protein (recombinant human interferon beta-1b, C17S IFN-beta-1b, refolded under high pressure) (ligand)
chain: SYNLLGFLQRSSNFQSQKLLWQLNGRLEYCLKDRMNFDIPEEIKQLQQFQKEDAALTIYEMLQNIFAIFRQDSSSTGWNETIVENLLANVYHQINHLKTVLEEKLEKEDFTRGKLMSSLHLKRYYGRILHYLKAKEYSHCAWTIVRVEILRNFYFINRLTGYLRN
notes: Non-glycosylated, expressed in E. coli; It was tested untreated and after RP-HPLC/SEC-HPLC isolation; The research-grade material was partially deamidated; also called rhIFN beta-1b; rhIFN-beta1b
Take B1: the binding result was “binds”.
